The record followed here is the supplement of paper PMC10201428.

B1: library; a variant is named by its letters at N, in order (parent)
chain: AATGTTGTTGATGCAACCATAAAGTGATATTTAATAATTATTTATAATCAGCAACTTAACCACAAAACAACCATATATTGATATNTCACAAAACAACCATAANTTGATATTTTTGTGAATCGAGTATTTCAGCAAAACTACTGCAGTAAGAA

± gives the standard deviation of the averaged measurements.

Variants of B1 are the subject of data set [1]. As to the kind of experiment: relative integration efficiency (T-LR orientation) vs wild-type transposon end (log2 (normalized fold change)); transposon end mutated: left end; higher = more efficient transposition. The settings on record: with VchCAST RNA-guided transposition machinery (E. coli BL21(DE3) host, lacZ target). As for the experimental part: (§1)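 Pooled, barcoded VchCAST (Tn6677) mini-transposon donor libraries; each variable transposon-end sequence sits in a fixed pDonor mini-transposon context (10-bp barcode and cargo not included). Left- or right-end libraries were co-transformed with pEffector (TniQ-Cascade, TnsABC, lacZ crRNA, T7, 0.1 mM IPTG) into E. coli BL21(DE3) and grown 18 h at 37 C. T-LR and T-RL junction amplicons were sequenced; output/input barcode fold change was normalised to the mean of four wild-type barcodes and log2-transformed. Two biological replicates; zero-count/undetected variants carry floor values (-10 / -15), censored here. Barcode uncoupling by PCR recombination adds noise.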

Variants of B1 are the subject of data set [2]. As to the kind of experiment: relative integration efficiency (T-RL orientation) vs wild-type transposon end (log2 (normalized fold change)); transposon end mutated: left end; higher = more efficient transposition. The settings on record: with VchCAST RNA-guided transposition machinery (E. coli BL21(DE3) host, lacZ target). Here is the method: as §1

AATGTTGTTGATGCACCCATAAATTGATAATTAATAATTATTTATAATCAGCAACTTAACCACAAAACACCCATAAATTGATATTGCACAAAACACCCATAAATTGATATTGCTGTGAATCGAGTATTTCAGCAAAACTACTGCAGTAAGAA: the “relative integration efficiency (log2)” value in data set [1] is -0.394 ± 0.73; in data set [2], -0.421 ± 0.27.
On to AATGTTGTTGATGCACCCATAAATTGATAATTAATAATTATTTATAATCAGCAACTTAACCACAAAACAACCATAAGTTGATATTTTACAAAACAACCATAAAGTGATATTTATGTGAATCGAGTATTTCAGCAAAACTACTGCAGTAAGAA, for which the “relative integration efficiency (log2)” value was -0.204 ± 0.73 in data set [1] and -0.483 ± 0.46 in data set [2].
The corresponding values for AATGTTGTTGATGCACCCATAAATTGATAATTAATAATTATTTATAATCAGCAACTTAACCACAAAACACCCATAAATTGATAATTAACAAAACAACCATAAAATGATAATTATGTGAATCGAGTATTTCAGCAAAACTACTGCAGTAAGAA are -0.0907 ± 0.0099 and 0.0016 ± 0.4.
The like results for AATGTTGTTGATGCACCCATAAATTGATAATTAATAATTATTTATAATCAGCAACTTAACCACAAAACAACCATATATTGATATCTCACAAAACAACCATATATTGATATCTCTGTGAATCGAGTATTTCAGCAAAACTACTGCAGTAAGAA were, in that order, -0.907 ± 1 and -0.887 ± 0.57.
Take AATGTTGTTGATGCAACCATAAAGTGATATTTAATAATTATTTATAATCAGCAACTTAACCACAAAACAACCATATATTGATATCTCACAAAACAACCATAAATTGATATTTTTGTGAATCGAGTATTTCAGCAAAACTACTGCAGTAAGAA: the “relative integration efficiency (log2)” value was 0.637 ± 0.24 in data set [1] and 0.299 ± 0.068 in data set [2].
As for AATGTTGTTGATGCACCCATAAATTGATAATTAATAATTATTTATAATCAGCAACTTAACCACAAAACACCCATAAATTGATAATTAACAAAACACCCATAAATTGATATTGCTGTGAATCGAGTATTTCAGCAAAACTACTGCAGTAAGAA, the entries for the “relative integration efficiency (log2)” value in data set [1] and in data set [2] were -0.489 ± 0.88 and 0.259 ± 0.14, respectively.
Regarding AATGTTGTTGATGCACCCATAAATTGATAATTAATAATTATTTATAATCAGCAACTTAACCACAAAACACCCATAAATTGATATTGCACAAAACAACCATATATTGATATCTCTGTGAATCGAGTATTTCAGCAAAACTACTGCAGTAAGAA, the “relative integration efficiency (log2)” value in data set [1] is -0.48 ± 1.4; in data set [2], -0.134 ± 0.32.
On to AATGTTGTTGATGCACCCATAAATTGATAATTAATAATTATTTATAATCAGCAACTTAACCACAAAACACCCATAAATTGATATTGCACAAAACACCCATAAATTGATAATTATGTGAATCGAGTATTTCAGCAAAACTACTGCAGTAAGAA, for which the entries for the “relative integration efficiency (log2)” value in data set [1] and in data set [2] were -0.0192 ± 0.24 and -0.213 ± 0.29, respectively.
Regarding AATGTTGTTGATGCACCCATAAATTGATAATTAATAATTATTTATAATCAGCAACTTAACCACAAAACAACCATATATTGATATCTCACAAAACACCCATAAATTGATAATTATGTGAATCGAGTATTTCAGCAAAACTACTGCAGTAAGAA, the “relative integration efficiency (log2)” value was -0.499 ± 0.66 in data set [1] and -0.208 ± 0.19 in data set [2].
As to AATGTTGTTGATGCACCCATAAATTGATAATTAATAATTATTTATAATCAGCAACTTAACCACAAAACACCCATAAATTGATATTGCACAAAACAACCATAAAATGATAATTATGTGAATCGAGTATTTCAGCAAAACTACTGCAGTAAGAA, the “relative integration efficiency (log2)” value in data set [1] is -0.858 ± 0.25; in data set [2] it was -0.764 ± 0.36.
The corresponding values for AATGTTGTTGATGCACCCATAAATTGATAATTAATAATTATTTATAATCAGCAACTTAACCACAAAACAACCATAAGTTGATATTTTACAAAACAACCATATATTGATATCTCTGTGAATCGAGTATTTCAGCAAAACTACTGCAGTAAGAA are -1.05 ± 1.4 and -0.994 ± 0.46.
The corresponding values for AATGTTGTTGATGCACCCATAAATTGATAATTAATAATTATTTATAATCAGCAACTTAACCACAAAACACCCATAAATTGATAATTAACAAAACAACCATAAAGTGATATTTATGTGAATCGAGTATTTCAGCAAAACTACTGCAGTAAGAA are 0.223 ± 0.78 and -0.109 ± 0.46.
For AATGTTGTTGATGCACCCATAAATTGATAATTAATAATTATTTATAATCAGCAACTTAACCACAAAACAACCATATATTGATATCTCACAAAACACCCATAAATTGATATTGCTGTGAATCGAGTATTTCAGCAAAACTACTGCAGTAAGAA, the “relative integration efficiency (log2)” value is -0.699 ± 0.71 in data set [1] and -0.628 ± 0.18 in data set [2].
In the case of AATGTTGTTGATGCACCCATAAATTGATAATTAATAATTATTTATAATCAGCAACTTAACCACAAAACACCCATAAATTGATAATTAACAAAACACCCATAAATTGATAATTATGTGAATCGAGTATTTCAGCAAAACTACTGCAGTAAGAA, the entries for the “relative integration efficiency (log2)” value in data set [1] and in data set [2] were -0.489 ± 0.47 and -0.00649 ± 0.34, respectively.
The like results for AATGTTGTTGATGCACCCATAAATTGATAATTAATAATTATTTATAATCAGCAACTTAACCACAAAACAACCATAAGTTGATATTTTACAAAACAACCATAAAATGATAATTATGTGAATCGAGTATTTCAGCAAAACTACTGCAGTAAGAA were, in that order, -0.222 ± 0.22 and -0.901 ± 0.53.
Take AATGTTGTTGATGCACCCATAAATTGATAATTAATAATTATTTATAATCAGCAACTTAACCACAAAACACCCATAAATTGATATTGCACAAAACAACCATAAAGTGATATTTATGTGAATCGAGTATTTCAGCAAAACTACTGCAGTAAGAA: the results for the “relative integration efficiency (log2)” value in data set [1] and in data set [2] were -0.388 ± 0.33 and -0.652 ± 0.39, respectively.
As for AATGTTGTTGATGCACCCATAAATTGATAATTAATAATTATTTATAATCAGCAACTTAACCACAAAACAACCATAAGTTGATATTTTACAAAACACCCATAAATTGATATTGCTGTGAATCGAGTATTTCAGCAAAACTACTGCAGTAAGAA, the “relative integration efficiency (log2)” value in data set [1] was 0.0498 ± 0.26; in data set [2], -0.0655 ± 0.56.
Consider AATGTTGTTGATGCACCCATAAATTGATAATTAATAATTATTTATAATCAGCAACTTAACCACAAAACAACCATAAGTTGATATTTTACAAAACACCCATAAATTGATAATTATGTGAATCGAGTATTTCAGCAAAACTACTGCAGTAAGAA, for which the “relative integration efficiency (log2)” value in data set [1] was 0.1 ± 1.2; in data set [2], -0.0467 ± 0.48.
Regarding AATGTTGTTGATGCACCCATAAATTGATAATTAATAATTATTTATAATCAGCAACTTAACCACAAAACACCCATAAATTGATAATTAACAAAACAACCATATATTGATATCTCTGTGAATCGAGTATTTCAGCAAAACTACTGCAGTAAGAA, the “relative integration efficiency (log2)” value in data set [1] is -0.517 ± 1.4; in data set [2], -0.107 ± 0.55.
